Substitutions are numbered along the chain they refer to. Names and notes keep the numbering of the source.
Columns and labels:
KlAH = target: T1, KlAH (Kluyveromyces lactis, UniProt Q6CP22); test: glutamate dehydrogenase-coupled NADH assay of ammonium; format: biochemical; conditions: AH activity; 6 mM MgCl2, 20 mM KCl, pH 8.0; substrate as potassium salt; read-out: Km^1
T1 construct: gene KLLA0_E08119g; isolated allophanate hydrolase (AH) part, N and C domains, N-terminal part of KlUA; recombinant; homodimer
Excerpt: glutamate dehydrogenase-coupled NADH assay of ammonium on KlAH

[1] = substrate: NC(=O)NC(=O)O; test: as above; format: biochemical, Kluyveromyces lactis; conditions: AH activity, 6 mM MgCl2, 20 mM KCl, pH 8.0, substrate as potassium salt
Excerpt: (§1) glutamate dehydrogenase-coupled NADH assay of ammonium on KlUA

[2] = substrate: NC(N)=O; test: as above; format: biochemical, Kluyveromyces lactis; conditions: overall UA activity, 5 mM ATP, 12.5 mM bicarbonate, 11 mM MgCl2, 20 mM KCl
Excerpt: as §1

[3] = target: the molecule itself; test: SEC; analytical gel filtration, Superose 6 HR column; 0.25 mg protein injected; 20 mM Tris/HCl pH 8.0, 200 mM NaCl; calibrated with standards of 29-669 kDa
[4] = pH 8.0, mutation at AH dimer interface

## NC(=O)NC(=O)O [allophanate]
KlAH
  Km: 432 ± 60 µM

B1: Kluyveromyces lactis urea amidolyase, full length (enzyme, UniProt Q6CP22 1-1829, looked up)
chain: MESTLGWSVQDWLSFHSKSTPTKSLELLENLLKSQKPAPEDPAWISLIPVEDLHHQWNILQSKSNKEELPLYGVPIAVKDNIDYKGLPTTAACPSYLYQPTRDSYVVELLRDAGAVVIGKTNLDQFATGLVGTRSPYGKTPCVFNDKYVSGGSSAGSASVVGRGIVPLSLGTDTAGSGRVPAALNNLIGLKPTKGAFSCRGVVPACKSLDCVSVFALNLSDAEIAFKVMNKPDLLEDEYSREFPKNPISQYPKDLTIAIPKEVPWFGETENPKLYTKAVASLKNTGAKIVVVDFEPLLELARCLYEGAWVAERYCATRDFLATNPPESSLDETVVNIIKGAVKFDAADAFKFEYKRQGILQKVNLLLKDIDVLCVPTCPLNPKLEEVAQEPVLVNSRQGTWTNFVNLADLAALAVPSGFRSDGLPNGITLIGKKFSDYALLDLAKRFFSVAFPNNSRTYGKFVDRRITVEDELDGPSKDTLNGVKLAVVGAHLKGLPLHWQLQKCNATYLSSPKTSNNYKLYALPKVGPVLKPGLRRVNDGTGSQIQLEVYSVPYDRFGDFIAMVPEPLGIGSVELESGEWVKSFICEEFGYTQQGTVDITKFGGFKPYIEHIQVTEAQKKKPFETVLIANRGEIAVRIMKTLKRMGIKSVAVYSDPDKYSQHVTDADFSVALHGRTAAETYLDIDKIINAAKKTGAQAIIPGYGFLSENADFSDRCSQENIVFVGPSGDAIRKLGLKHSAREIAERAKVPLVPGSGLIKDAKEAKEVAKKLEYPVMVKSTAGGGGIGLQKVDSEDDIERVFETVQHQGKSYFGDAGVFMERFVNNARHVEIQMMGDGFGKAIAIGERDCSLQRRNQKVIEETPAPNLPEATRAKMRAASERLGSLLKYKCAGTVEFIYDEQRDEFYFLEVNARLQVEHPITEMVTGLDLVEWMLRIAANDSPDFDNTKIEVSGASIEARLYAENPVKDFRPSPGQLTSVSFPSWARVDTWVKKGTNVSAEYDPTLAKIIVHGKDRNDAIMKLNQALNETAVYGCITNIDYLRSIASSKMFKEAKVATKVLDSFDYKPCAFEVLAPGANTSVQDYPGRTGYWRIGVPPSGPMDSYSFRLANRVVGNNSKSPALEITLNGPKLLFHTETVIAVSGGTVSCTLNDAQIAQNEPIEVKRGDILSVGKVTVGCRAYLSIRGGIDVPEYLGSRSTFAMGNMGGYNGRILKLGDVLFLNQPELSVSSLPAPDFEPQAAPKSLLPTLSTNKDWKIGVTCGPHGSIDLFKEEYIEQFFNDKWKVHYNSNRFGVRLIGPKPKWARSDGGEAGLHPSNAHDYVYSLGAINFTGDEPVIITCDGPSLGGFVCQAVVAEAELWKVGQLTPGDTIQFVPLSYGVARQLKESQDKSIDNFEEGSLLELSDDKILPKYENPILAVLPKKSDLSPKVTYRQAGDRYILVEYGELEFDLNICYRINRLIHQVERHQTVGIVEMSQGVRSVLIEFDGSKINQKALLKCLIAYESEIQFDKNWNVKSKIFKLPMAFEDSKTLDCVTRYRETIRSEAPWLPNNVDFIADVNDIDRNDVKNMLYSAKFMVLGLGDVFLGSPCAVPLDPRHRYLGTKYNPSRTYTARGVVGIGGMYMCIYNAEGSPGGYQLVGRTITAWDKLVIGDHPIDHPWLLTPFDQVEFYPVTEEELEVIIEDNDNGKFKIDVEESIFDHKEYLAWINENIDSIVAFQEAQGGEKADEFARLIQVANAELKKSGDDKPQDVEEYPDDAELLYSEYTGRFWKPVAAVGDHVEAGDGVIIIEAMKTEMVVGATKSGKVYKILHKNGDMVEAGDLVAVIV
notes: urea amidolyase (AH domain followed by UC domain: BC, CT, BCCP) of Kluyveromyces lactis, gene amplified from the K. lactis genome; monomer 202 kDa; also called KlUA; full-length KlUA; source: expression and purification followed protocols reported previously [14,17]; purified
[1]
  Km: 360 ± 37 µM
  kcat: 34.2 ± 0.683 s⁻¹
  kcat/Km: 94900 ± 11700 M⁻¹ s⁻¹
[2]; pH 8.0
  Km: 255 ± 18 µM
  kcat: 13.9 ± 0.183 s⁻¹
  kcat/Km: 54600 ± 4600 M⁻¹ s⁻¹
[3]
  stoichiometry N: 2

B2: KlUA (Kluyveromyces lactis NRRL Y-1140; G559E/G572E) (protein)
chain: B1 chain with G559E, G572E
notes: full-length enzyme, AH + UC domains; recombinant in E. coli BL21(DE3) Star (pET28A, nickel column); homodimer, monomer 202 kDa
[1]; mutation at AH dimer interface
  Km: 1040 ± 183 µM
  kcat: 7.85 ± 0.367 s⁻¹
  kcat/Km: 7550 ± 1680 M⁻¹ s⁻¹
[2]; [4]
  Km: 361 ± 32 µM
  kcat: 3 ± 0.0533 s⁻¹
  kcat/Km: 8320 ± 900 M⁻¹ s⁻¹

B3: KlUAΔBCCP (Kluyveromyces lactis urea amidolyase residues 1-1741, BCCP domain removed) (domain or fragment, UniProt Q6CP22 1-1741, looked up)
chain: MESTLGWSVQDWLSFHSKSTPTKSLELLENLLKSQKPAPEDPAWISLIPVEDLHHQWNILQSKSNKEELPLYGVPIAVKDNIDYKGLPTTAACPSYLYQPTRDSYVVELLRDAGAVVIGKTNLDQFATGLVGTRSPYGKTPCVFNDKYVSGGSSAGSASVVGRGIVPLSLGTDTAGSGRVPAALNNLIGLKPTKGAFSCRGVVPACKSLDCVSVFALNLSDAEIAFKVMNKPDLLEDEYSREFPKNPISQYPKDLTIAIPKEVPWFGETENPKLYTKAVASLKNTGAKIVVVDFEPLLELARCLYEGAWVAERYCATRDFLATNPPESSLDETVVNIIKGAVKFDAADAFKFEYKRQGILQKVNLLLKDIDVLCVPTCPLNPKLEEVAQEPVLVNSRQGTWTNFVNLADLAALAVPSGFRSDGLPNGITLIGKKFSDYALLDLAKRFFSVAFPNNSRTYGKFVDRRITVEDELDGPSKDTLNGVKLAVVGAHLKGLPLHWQLQKCNATYLSSPKTSNNYKLYALPKVGPVLKPGLRRVNDGTGSQIQLEVYSVPYDRFGDFIAMVPEPLGIGSVELESGEWVKSFICEEFGYTQQGTVDITKFGGFKPYIEHIQVTEAQKKKPFETVLIANRGEIAVRIMKTLKRMGIKSVAVYSDPDKYSQHVTDADFSVALHGRTAAETYLDIDKIINAAKKTGAQAIIPGYGFLSENADFSDRCSQENIVFVGPSGDAIRKLGLKHSAREIAERAKVPLVPGSGLIKDAKEAKEVAKKLEYPVMVKSTAGGGGIGLQKVDSEDDIERVFETVQHQGKSYFGDAGVFMERFVNNARHVEIQMMGDGFGKAIAIGERDCSLQRRNQKVIEETPAPNLPEATRAKMRAASERLGSLLKYKCAGTVEFIYDEQRDEFYFLEVNARLQVEHPITEMVTGLDLVEWMLRIAANDSPDFDNTKIEVSGASIEARLYAENPVKDFRPSPGQLTSVSFPSWARVDTWVKKGTNVSAEYDPTLAKIIVHGKDRNDAIMKLNQALNETAVYGCITNIDYLRSIASSKMFKEAKVATKVLDSFDYKPCAFEVLAPGANTSVQDYPGRTGYWRIGVPPSGPMDSYSFRLANRVVGNNSKSPALEITLNGPKLLFHTETVIAVSGGTVSCTLNDAQIAQNEPIEVKRGDILSVGKVTVGCRAYLSIRGGIDVPEYLGSRSTFAMGNMGGYNGRILKLGDVLFLNQPELSVSSLPAPDFEPQAAPKSLLPTLSTNKDWKIGVTCGPHGSIDLFKEEYIEQFFNDKWKVHYNSNRFGVRLIGPKPKWARSDGGEAGLHPSNAHDYVYSLGAINFTGDEPVIITCDGPSLGGFVCQAVVAEAELWKVGQLTPGDTIQFVPLSYGVARQLKESQDKSIDNFEEGSLLELSDDKILPKYENPILAVLPKKSDLSPKVTYRQAGDRYILVEYGELEFDLNICYRINRLIHQVERHQTVGIVEMSQGVRSVLIEFDGSKINQKALLKCLIAYESEIQFDKNWNVKSKIFKLPMAFEDSKTLDCVTRYRETIRSEAPWLPNNVDFIADVNDIDRNDVKNMLYSAKFMVLGLGDVFLGSPCAVPLDPRHRYLGTKYNPSRTYTARGVVGIGGMYMCIYNAEGSPGGYQLVGRTITAWDKLVIGDHPIDHPWLLTPFDQVEFYPVTEEELEVIIEDNDNGKFKIDVEESIFDHKEYLAWINENIDSIVAFQEAQGGEKADEFARLIQVANAE
notes: urea amidolyase of Kluyveromyces lactis, residues 1-1741 (stop codon inserted after base pair 5223); lacks the C-terminal BCCP domain; monomer 190 kDa; also called KIUAΔBCCP; source: E. coli BL21 (DE3) Star, purified (Ni-NTA, anion exchange, size exclusion)
[3]
  stoichiometry N: 2
